For this test, the target named is T1, prostate-specific membrane antigen (PSMA) (human, UniProt Q04609 44-750, limits assumed, 125I-labelled in Examples 2 and 8 (site of iodination not stated); unlabelled in Examples 5 and 6).
T1 construct: also called purified recombinant PSMA
Briefly: competition radioligand binding: 1 nM 125I-PSMA on plate-coated mimetope (SEQ ID NO:24), with 0 or 10 uM of the soluble peptide as competitor. The procedure:
For a typical competition binding experiment, the mimetope is coated to a solid support such as a 96-well plate by allowing 100 ul of a 10 uM solution of the mimetope (SEQ ID NO:24) in water to dry in the wells. The wells are then washed with TBST and blocked with 3% casein in TBST to minimize non-specific binding. The wells are then incubated with 1 nM ¹²⁵I-PSMA at a specific activity of about 80 000 dpm/pmol, containing 0 or 10 uM of alanine-mimetope. The plate is incubated O/N at 4° C. then the wells are rapidly washed with TBST to remove the unbound ligand fraction, and then counted in a gamma counter. The radioactivity counted in each wells represents the bound fraction of the ligand. An alanine-mimetope that binds to PSMA will thus reduce the binding of ¹²⁵I-PSMA to the coated (SEQ ID NO:24).

T1 sequence (Q04609 44-750 limits assumed): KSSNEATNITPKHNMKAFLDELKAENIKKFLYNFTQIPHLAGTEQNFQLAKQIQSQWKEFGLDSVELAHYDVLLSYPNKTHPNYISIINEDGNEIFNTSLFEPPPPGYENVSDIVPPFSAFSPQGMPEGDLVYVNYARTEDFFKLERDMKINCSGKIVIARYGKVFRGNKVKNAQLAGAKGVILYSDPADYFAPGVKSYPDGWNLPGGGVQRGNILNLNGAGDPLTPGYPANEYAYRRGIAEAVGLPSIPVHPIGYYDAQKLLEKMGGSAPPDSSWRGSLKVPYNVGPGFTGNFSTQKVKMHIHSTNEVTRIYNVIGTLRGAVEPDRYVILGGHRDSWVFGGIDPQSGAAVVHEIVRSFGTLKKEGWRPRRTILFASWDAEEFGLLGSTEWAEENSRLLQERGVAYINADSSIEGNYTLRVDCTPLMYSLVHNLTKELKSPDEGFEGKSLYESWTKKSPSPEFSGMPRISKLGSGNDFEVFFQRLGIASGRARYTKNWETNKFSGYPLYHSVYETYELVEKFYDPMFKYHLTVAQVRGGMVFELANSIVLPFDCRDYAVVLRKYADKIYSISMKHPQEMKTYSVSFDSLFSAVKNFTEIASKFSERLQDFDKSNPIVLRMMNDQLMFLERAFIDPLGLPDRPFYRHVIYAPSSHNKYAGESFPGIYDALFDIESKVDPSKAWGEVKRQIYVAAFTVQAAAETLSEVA

Take KQSYNAIT [PS68]: the binding result is “no binding (tested: 10 uM)”.

As to KQSYNFAT [PS69], the binding result is listed as “no binding (tested: 10 uM)”.

These data come from US20090131277A1 (PROSCAN RX PHARMA, published 2009).
